# Biological target: TDP-43 (Homo sapiens) (UniProt Q13148)
# Details: reanalysis of public CLIP-seq; healthy brain; ratio rises to 2.0 in FTLD
# TDP-43 (Homo sapiens), sequence (Q13148 whole entry): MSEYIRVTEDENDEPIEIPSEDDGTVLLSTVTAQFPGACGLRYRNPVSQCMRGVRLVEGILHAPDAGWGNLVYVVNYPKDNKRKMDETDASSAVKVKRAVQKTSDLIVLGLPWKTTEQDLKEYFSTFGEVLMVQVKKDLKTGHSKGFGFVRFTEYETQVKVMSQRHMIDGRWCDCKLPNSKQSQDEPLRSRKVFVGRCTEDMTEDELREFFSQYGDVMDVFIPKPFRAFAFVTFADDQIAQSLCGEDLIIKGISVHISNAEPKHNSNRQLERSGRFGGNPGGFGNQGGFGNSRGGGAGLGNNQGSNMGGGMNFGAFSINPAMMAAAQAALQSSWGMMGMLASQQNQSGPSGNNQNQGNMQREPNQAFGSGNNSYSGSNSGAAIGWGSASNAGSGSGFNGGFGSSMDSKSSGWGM
sequence,measurement,value
UGUGU [UGUGU pentamer motif],binding signal (RefGene/repeat motif enrichment ratio),1.3
